“And” between values parts separate entries of the source, which are not always exact repeats. Identical values can stand only once.
molecular target: T1, human epidermal growth factor receptor (EGFR) (Homo sapiens, UniProt P00533); experiment: SPR; ProteOn XPR36 one-shot kinetics; antibodies amine-coupled onto GLC chips, EGFR injected as monovalent analyte for 3 min (5fold and 3fold series, top 56 nM; over matuzumab 3fold series, top 278 nM); 25°C, PBS + 0.01% Tween-20; global Langmuir model with mass transport; apparent; conditions: both partners purified
T1 construct: human epidermal growth factor receptor, used as a 'monovalent antigen' in solution

Kd | koff | kon | Binder
93.1 nM and 92.6 nM | 0.034 s⁻¹ and 0.031 s⁻¹ | 360000 M⁻¹ s⁻¹ and 340000 M⁻¹ s⁻¹ | matuzumab Fab fragment (Fab, V domains shown, Fab heavy chain of matuzumab; light chain of matuzumab; source: Expi293 transient expression, co-transfection of heavy and light chain vectors, purified (IMAC, Ni Sepharose Excel)) VH: QVQLVQSGAEVKKPGASVKVSCKASGYTFTSHWMHWVRQAPGQGLEWIGEFNPSNGRTNYNEKFKSKATMTVDTSTNTAYMELSSLRSEDTAVYYCASRDYDYAGRYFDYWGQGTLVTVSS VL: DIQMTQSPSSLSASVGDRVTITCSASSSVTYMYWYQQKPGKAPKLLIYDTSNLASGVPSRFSGSGSGTDYTFTISSLQPEDIATYYCQQWSSHIFTFGQGTKVEIK
1.5 nM and 1.6 nM | 0.0036 s⁻¹ and 0.0059 s⁻¹ | 3.9e+06 M⁻¹ s⁻¹ and 2.2e+06 M⁻¹ s⁻¹ | necitumumab (IMC-11F8) Fab fragment (Fab, V domains shown, Fab heavy chain of necitumumab; light chain of necitumumab; source: Expi293 transient expression, co-transfection of heavy and light chain vectors, purified (IMAC, Ni Sepharose Excel)) VH: QVQLQESGPGLVKPSQTLSLTCTVSGGSISSGDYYWSWIRQPPGKGLEWIGYIYYSGSTDYNPSLKSRVTMSVDTSKNQFSLKVNSVTAADTAVYYCARVSIFGVGTFDYWGQGTLVTVSS VL: EIVMTQSPATLSLSPGERATLSCRASQSVSSYLAWYQQKPGQAPRLLIYDASNRATGIPARFSGSGSGTDFTLTISSLEPEDFAVYYCHQYGSTPLTFGGGTKAEIK
1.9 nM and 1.7 nM | 0.0035 s⁻¹ and 0.003 s⁻¹ | 1.9e+06 M⁻¹ s⁻¹ and 1.8e+06 M⁻¹ s⁻¹ | duligotuzumab (DL11) Fab fragment (Fab, V domains shown, Fab heavy chain of duligotuzumab; light chain of duligotuzumab; source: Expi293 transient expression, co-transfection of heavy and light chain vectors, purified (IMAC, Ni Sepharose Excel)) VH: EVQLVESGGGLVQPGGSLRLSCAASGFTLSGDWIHWVRQAPGKGLEWLGEISAAGGYTDYADSVKGRFTISADTSKNTAYLQMNSLRAEDTAVYYCARESRVSFEAAMDYWGQGTLVTVSS VL: DIQMTQSPSSLSASVGDRVTITCRASQDLATDVAWYQQKPGKAPKLLIYSASFLYSGVPSRFSGSGSGTDFTLTISSLQPEDFATYYCQQSEPEPYTFGQGTKVEIK

Source: PMC5218414 (PLoS ONE, 2017)
